Values quoted from earlier work, collected in PMC4364296.
pKd: −log10 of the molar value. Several values for one entry are separate records, joined by “and”; a condition that tells them apart may be missing. Equal values may be shown once. Read-outs that look alike come from different tables or passages of the source.

Key:
ZipA (Escherichia coli) [1] = molecular target: ZipA (Escherichia coli) (UniProt P77173)
ZipA (Escherichia coli) [2] = molecular target: ZipA (Escherichia coli) (UniProt P77173); remark: listed apart in the source

Chain of FtsZ (P0A9A6 whole entry): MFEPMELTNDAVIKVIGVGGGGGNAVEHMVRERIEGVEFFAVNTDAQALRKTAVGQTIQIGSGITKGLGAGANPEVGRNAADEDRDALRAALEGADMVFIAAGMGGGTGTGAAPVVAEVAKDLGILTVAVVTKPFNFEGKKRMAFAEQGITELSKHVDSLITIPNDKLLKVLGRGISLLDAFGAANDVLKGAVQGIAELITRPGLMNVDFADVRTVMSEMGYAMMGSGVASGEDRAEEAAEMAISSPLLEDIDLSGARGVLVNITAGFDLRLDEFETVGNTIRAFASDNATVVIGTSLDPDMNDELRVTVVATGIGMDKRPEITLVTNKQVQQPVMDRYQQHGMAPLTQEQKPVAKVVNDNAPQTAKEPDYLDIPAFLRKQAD

FtsZ (from UniProt P0A9A6)
pKd (ZipA (Escherichia coli) [1]): 4.40

FtsZ CCTP peptide CCTP (from UniProt P0A9A6)
pKd (ZipA (Escherichia coli) [2]): 4.46 and 4.67
